Experimental data as given in PMC5472405, “Epithelial chemokine CXCL14 synergizes with CXCL12 via allosteric modulation of CXCR4” (The FASEB Journal, 2017).

B1: CXC chemokine ligand 14 (CXCL14), synthetic (ligand, human, UniProt O95715 35-111, looked up)
chain: SKCKCSRKGPKIRYSDVKKLEMKPKYPHCEEKMVIITTKSVSRYRGQEHCLHPKLQSTKRFIKWYNAWNEKRRVYEE
notes: source: chemically synthesized
B2: CXC chemokine receptor 4 (CXCR4) on lentiviral particles (receptor, UniProt P61073 1-352, looked up)
chain: MEGISIYTSDNYTEEMGSGDYDSMKEPCFREENANFNKIFLPTIYSIIFLTGIVGNGLVILVMGYQKKLRSMTDKYRLHLSVADLLFVITLPFWAVDAVANWYFGNFLCKAVHVIYTVNLYSSVLILAFISLDRYLAIVHATNSQRPRKLLAEKVVYVGVWIPALLLTIPDFIFANVSEADDRYICDRFYPNDLWVVVFQFQHIMVGLILPGIVILSCYCIIISKLSHSKGHQKRKALKTTVILILAFFACWLPYYIGISIDSFILLEIIKQGCEFENTVHKWISITEALAFFHCCLNPILYAFLGAKFKTSAQHALTSVSRGSSLKILSKGKRGGHSSVSTESESSSFHSS
notes: also called CXCR4-expressing LVPs

How the values were obtained:
[1] = target: B2; assay: cell-based or functional assay
[2] = target: B2; assay: SPR; CXCR4 lentiviral particles (8000-8500 RU) immobilised on a CM5 chip; CXCL12 or CXCL14 12.5-200 nM injected in HBS (100 mM HEPES, 150 mM NaCl, 0.005% P20, pH 7.4), 30 ul/min, 25°C; reference: particles from CXCR4-negative cells or none; simple 1-site model; Biacore 3000; conditions: one partner purified
[3] = target: T1, full-length CXCL12α, synthetic (human, UniProt P48061-2 22-89); assay: as above; conditions: one partner purified
T1 construct: also called CXC chemokine ligand 12; source: chemically synthesized
T1 sequence (P48061 22-89): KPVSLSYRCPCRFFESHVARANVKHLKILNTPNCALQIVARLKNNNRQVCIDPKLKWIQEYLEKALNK

Binder | entry of R5-tropic HIV-1 (pR8Bal) into TZM-bl cells (luciferase reporter), 0-1000 nM CXCL14 [1] [fold] | entry of X4 HIV-1 (pNL4.3) into TZM-bl cells (luciferase reporter), 10-1000 nM CXCL14 alone [1] [fold] | Kd [2] [nM] | koff [2] [s⁻¹] | kon [2] [M⁻¹ s⁻¹] | Kd [3] [nM] | koff [3] [s⁻¹] | kon [3] [M⁻¹ s⁻¹]
B1 | > 3 | > 3 | 8 | 0.00317 | 396000 |  |  | 
B2 |  |  |  |  |  | 35 | 0.00428 | 122000
